Among the data in patent publication US20210347858A1 are percent inhibition of RBD:ACE2 binding values, retold here.

Bounds are passed on as bounds.

The target in this experiment is human ACE2 receptor protein (hACE2) pre-coated on the plate of the GenScript sVNT C-Pass Kit (human) (UniProt Q9BYF1). The experiment is described as follows: modified GenScript sVNT (FIG. 28), competitor HRP-RBD.
UniProt Q9BYF1, sequence (Q9BYF1 18-740 limits assumed): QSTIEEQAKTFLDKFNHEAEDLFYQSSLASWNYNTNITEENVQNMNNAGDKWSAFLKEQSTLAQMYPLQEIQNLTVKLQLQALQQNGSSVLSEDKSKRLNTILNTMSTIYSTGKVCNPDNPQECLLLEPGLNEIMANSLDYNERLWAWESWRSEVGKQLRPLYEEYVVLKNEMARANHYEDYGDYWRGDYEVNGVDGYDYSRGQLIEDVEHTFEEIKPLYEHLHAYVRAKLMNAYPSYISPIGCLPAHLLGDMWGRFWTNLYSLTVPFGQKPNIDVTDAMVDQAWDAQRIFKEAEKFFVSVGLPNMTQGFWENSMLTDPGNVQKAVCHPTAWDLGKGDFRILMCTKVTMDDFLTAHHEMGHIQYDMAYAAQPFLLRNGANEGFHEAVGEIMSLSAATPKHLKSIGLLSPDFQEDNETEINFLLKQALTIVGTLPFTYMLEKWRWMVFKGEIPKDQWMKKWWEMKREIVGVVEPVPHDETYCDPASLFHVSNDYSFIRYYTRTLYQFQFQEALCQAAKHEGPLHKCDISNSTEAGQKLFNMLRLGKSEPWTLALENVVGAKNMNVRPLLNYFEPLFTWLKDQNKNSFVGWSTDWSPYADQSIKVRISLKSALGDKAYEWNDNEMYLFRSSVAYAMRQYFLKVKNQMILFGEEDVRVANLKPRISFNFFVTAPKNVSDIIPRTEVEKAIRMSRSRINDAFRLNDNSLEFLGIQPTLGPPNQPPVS

“Serum from uninoculated (non-targeted) chickens (antibody)” showed a percent inhibition of RBD:ACE2 binding of less than 5%.
